The target in assay [1] is T1, Murine PD-1 on cells (mouse, UniProt Q02242 25-288).
T1 construct: also called Cells expressing murine PD-1
T1 sequence: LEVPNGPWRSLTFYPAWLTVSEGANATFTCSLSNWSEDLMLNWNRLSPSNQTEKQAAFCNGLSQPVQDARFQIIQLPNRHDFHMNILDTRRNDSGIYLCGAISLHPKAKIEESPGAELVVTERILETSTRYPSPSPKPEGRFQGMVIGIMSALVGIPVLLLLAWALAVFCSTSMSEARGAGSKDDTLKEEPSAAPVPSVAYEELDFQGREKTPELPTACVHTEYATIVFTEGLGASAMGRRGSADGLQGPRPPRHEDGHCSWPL
The assay can be described thus: scFv; inhibition of biotinylated murine PD-L1 fusion binding to cells expressing murine PD-1. As for the experimental part:
(§1) PD1-F2 scFv was produced and purified as described above. Cells expressing murine PD-1 were added at 10⁵ cells/well in a final volume of 100 μl to a poly-D-lysine-coated 96 well microtiter plate. Cells were centrifuged and washed twice in PBS, then blocked with 300 μl […] in PBS for 1 hour at room temperature. Blocked cells were washed three times in PBST, prior to addition of 25 μl/well of assay buffer (0.05% BSA, 0.05% Tween 20 in Dulbecco's PBS) or sample, followed by 25 μl of biotinylated murine PD-L1 fusion protein at 300 ng/ml. Binding of biotinylated PD-L1 fusion protein was detected with Amdex alkaline phosphatase and signals read as described above.

For assay [2], the target named is T2, Murine PD-1 fusion protein (mouse, UniProt Q02242 25-167).
T2 construct: also called mouse PD-1 fusion protein; not shown: fusion partner not described
T2 sequence: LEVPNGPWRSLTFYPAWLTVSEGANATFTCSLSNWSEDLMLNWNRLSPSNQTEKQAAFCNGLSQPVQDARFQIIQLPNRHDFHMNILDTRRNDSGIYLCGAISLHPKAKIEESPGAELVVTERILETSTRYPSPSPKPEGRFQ
Description: SPR (BIAcore 3000), murine PD-1 fusion immobilized on CM5 chip, antibody 7.81 to 125 nM in flow. How it is done: The binding affinity of the anti-mouse PD1 antibody PD1-F2 was determined with a Surface Plasmon Resonance (SPR) system (BIAcore 3000) (Biacore, Piscataway, N.J.) using murine PD-1 fusion immobilized on a CM5 sensor chip. The concentration of PD1-F2 in the flow cell ranged from 7.81 to 125 nM, while the concentration of the anti-mouse PD1 antibody J43 (eBioscience, San Diego, Calif.) ranged from 25 nM to 500 nM.
Background: SPR reads the build-up and loss of mass on a sensor chip optically.

Assay [3] deals with T1, Murine PD-1 on cells. Description: IgG; inhibition of biotinylated murine PD-L1 fusion binding to cells expressing murine PD-1. How it is done:
as §1, with “Cells” for “PD1-F2 scFv was produced and purified as described above. Cells”

In assay [4] the target is T3, Human PD-1 fusion protein (human, UniProt Q15116 25-167).
T3 construct: also called Soluble PD-1 fusion protein; human PD-1/IgG chimera; not shown: fusion partner, called IgG in 'PD-1/IgG chimera'
T3 sequence (Q15116 other isoform, or with tags, fused parts or gaps): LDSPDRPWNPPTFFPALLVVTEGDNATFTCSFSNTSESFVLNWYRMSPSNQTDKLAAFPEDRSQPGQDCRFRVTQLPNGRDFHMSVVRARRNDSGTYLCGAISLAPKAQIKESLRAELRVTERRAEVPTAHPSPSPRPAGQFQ
Description: scFv; inhibition of biotinylated human PD-L1 fusion binding to plate-bound human PD-1 fusion. How it is done:
ScFv production was induced by addition of 1 mM IPTG to exponentially growing cultures and incubation overnight at 30° C. Crude scFv-containing periplasmic extracts were obtained by subjecting the bacterial pellets from the overnight induction to osmotic shock. Pellets were resuspended in 20% (w/v) sucrose, 50 mM Tris-HCl, pH 7.5, 1 mM EDTA and cooled on ice for 30 minutes. Cellular debris was removed by centrifugation, and the scFv was purified by chromatography and buffer-exchanged into PBS. Purified scFv's (PD1-17, PD1-28, PD1-33, and PD1-35) were tested for the ability to inhibit the binding of biotinylated human PD-L1 fusion protein to human PD-1 fusion protein immobilized on plastic in a 96 well microtiter plate assay. Binding of biotinylated PD-L1 fusion protein was detected with AMDEX-alkaline phosphatase, and the signal generated was measured by reading the absorbance at 405 nm using a microtiter plate reader. Data was expressed as a percentage of the total binding and a titration of scFv concentrations was tested to establish clone potency as calculated IC₅₀ values.

Assay [5] concerns the target T3, Human PD-1 fusion protein. The assay can be described thus: IgG; inhibition of biotinylated human PD-L1 fusion binding to plate-bound human PD-1 fusion. How it is done:
Crude scFv-containing periplasmic extracts were obtained by subjecting the bacterial pellets from the overnight induction to osmotic shock. Pellets were resuspended in 20% (w/v) sucrose, 50 mM Tris-HCl, pH 7.5, 1 mM EDTA and cooled on ice for 30 minutes. Cellular debris was removed by centrifugation, and the scFv was purified by chromatography and buffer-exchanged into PBS. […] Binding of biotinylated PD-L1 fusion protein was detected with AMDEX-alkaline phosphatase, and the signal generated was measured by reading the absorbance at 405 nm using a microtiter plate reader. […]

B1: PD1-F2 scFv (scFv, V domains shown)
VH: EVQLVQSGGGVVQPGRSLRLSCAASGFTFSSYWMSWVRQAPGKGLEWVSAISGSGGSTYYADSVKGRFTISRDNSKNTLYLQMNSLRAEDTAVYYCAKENWGSYFDLWGQGTTVTVSS
VL: DIVMTQSPSTLSASVGDRVTITCRASQGISSWLAWYQQKPGRAPKVLIYKASTLESGVPSRFSGSGSGTDFTLTISSLQPEDFATYYCQQSYSTPWTFGQGTKLEIK
In the case of B1, in the assay with Murine PD-1 on cells [1], the 50% inhibitory concentration (IC50) worked out at 28 nM.

B2: PD1-F2 IgG (antibody, V domains shown)
VH: B1 VH
VL: DIVMTQSPSTLSASVGDRVTITCRASQGISSWLAWYQQKPGRAPKVLIYKASTLESGVPSRFSGSGSGTDFTLTISSLQPEDFATYYCQQSYSTPWTFGQGTKLEIKR
notes: also called anti-mouse PD1 antibody PD1-F2
For B2, in assay [2], the Ka was found to be 1.5e+08 M⁻¹ and the Kd was 6.7 nM. In the assay with Murine PD-1 on cells [3], the IC50 came to 1 nM.

B3: PD1-33 scFv (scFv, V domains shown)
VH: QVQLVQSGAEVKKPGASVRVSCKASGYTLTSYYIHWVRQAPGQGLEWMGIINPRGATISYAQKFQGRVTMTRDTSTSTVYMELRNLKSEDTALYYCATAGIYGFDFDYWGRGTLVTVSS
VL: QSALTQPASVSGSPGQSITISCTGTSNDVGGYNYVSWYQHHPGKAPKLIIYDVTNRPSGVSDRFSGSKSGNTASLTISGLLAEDEGDYYCSSYTIVTNFEVLFGGGTKLTV
Take B3: in assay [4], the IC50 was 74 nM.

B4: PD1-33 IgG (antibody, V domains shown)
VH: B3 VH
VL: B3 VL
B4 returned an IC50 in assay [5] of 1.8 nM.

B5: PD1-28 IgG (antibody, V domains shown)
VH: EVQLVQSGAEVKKPGASVKVSCKASGYRFTSYGISWVRQAPGQGLEWMGWISAYNGNTNYAQKLQGRVTMTTDTSTNTAYMELRSLRSDDTAVYYCARDADYSSGSGYWGQGTLVTVSS
VL: SYELTQPPSVSVSPGQTARITCSGDALPKQYAYWYQQKPGQAPVMVIYKDTERPSGIPERFSGSSSGTKVTLTISGVQAEDEADYYCQSADNSITYRVFGGGTKVTVL
With B5, the IC50 in assay [5] turned out to be 1.4 nM.

B6: PD1-28 scFv (scFv, V domains shown)
VH: B5 VH
VL: B5 VL
notes: not shown: scFv linker, order of the domains and vector tags (pCANTAB6 phagemid library)
Regarding B6, in assay [4], the IC50 is 560 nM.

B7: PD1-35 IgG (antibody, V domains shown)
VH: QVQLQESGPGLVKPSQTLSLTCTVSGGSISSGAYYWSWIRQHPGKGLEWIGYIYYNGNTYYNPSLRSLVTISVDASKNQFSLKLSSVTAADTAVYYCARASDYVWGGYRYMDAFDIWGRGTLITVSS
VL: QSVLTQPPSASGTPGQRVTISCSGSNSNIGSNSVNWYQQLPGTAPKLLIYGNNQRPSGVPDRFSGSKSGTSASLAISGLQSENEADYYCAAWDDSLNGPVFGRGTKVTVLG
notes: also called PD-35
Molecule B7 displayed an IC50 in assay [5] of 2.3 nM.

B8: PD1-17 scFv (scFv, V domains shown)
VH: QVQLQESGPGVVKPSGTLSLTCAISGGSIGSGGSIRSTRWWSWVRQSPGKGLEWIGEIYHSGSTNYNPSLKSRVTISLDKSRNHFSLRLNSVTAADTAVYYCARQDYGDSGDWYFDLWGKGTMVTVSS
VL: NFMLTQPHSVSESPGKTVTISCTRSSGSIASNSVQWYQQRPGSSPTTVIYEDNQRPSGVPDRFSGSIDSSSNSASLTVSGLKTEDEADYYCQSSDSSAVVFGSGTKLTVL
notes: as for B6
B8 registered an IC50 in assay [4] of 726 nM.

B9: PD1-17 IgG (antibody, V domains shown)
VH: B8 VH
VL: B8 VL
notes: also called anti-PD-1 antibody PD1-17
The molecule B9 displayed an IC50 in assay [5] of 2.5 nM.

The IC50 is the midpoint of a concentration-inhibition curve. A lower IC50 goes with greater potency. As usually defined, the Kd is the free concentration of one partner at which half of the binding sites on the other are occupied at equilibrium, for simple one-to-one binding. Read a low Kd as tighter binding.

The values above are taken from patent publication US20040213795A1 (Pfizer, published 2004).
